In article PMC8489928 (mAbs, 2021):

Columns and labels:
Mouse CD96 D1 (mouse) = Mouse CD96 D1 (mouse) (UniProt Q3U0X8); experiment: SEC-MALS
Human CD96 D1 (human) = Human CD96 D1 (human) (UniProt P40200); experiment: SEC-MALS
SEC-MALS = molecular target: the molecule itself; experiment: SEC-MALS
Mouse CD96 D1 [1] = molecular target: T1, Mouse CD96 D1 (mouse, UniProt Q3U0X8); experiment: SPR
Mouse CD96 D1 [2] = molecular target: T1, Mouse CD96 D1; experiment: SEC-MALS

Mouse CD155 (ligand)
stoichiometry N (Mouse CD96 D1 (mouse)): 1

Human CD155 (from UniProt P15151 21-417) (ligand)
stoichiometry N (Human CD96 D1 (human)): 1

B1: Mouse CD96 D1-D3 (domain or fragment, UniProt Q3U0X8 22-536, looked up)
chain: VWEELFNVGDDVYALPGSDINLTCQTKEKNFLVQMQWSKVTDKNDMIALYHPQYGLYCGQEHACESQVAATETEKGVTNWTLYLRNISSALGGKYECIFTLYPEGIKTTVYNLIVEPYTQDEHNYTIEIETNRTLEIPCFQNTSSEIPPRFTFSWLVEKDGVEEVLFTHHHHVNNSTSFKGRIRLGGDYRLHLSPVQIQDDGRTFSCHLTVNPLKAWKMSTTVKVFAKPEILMTVENSTMDVLGERVFTCLLKNVFPKANITWFIDGRFLQGNEEGIYITNEEKNCSSGFWELKSVLTRMHSGPSQSNNMTAWCMALSPGPRNKMWNTSSQPITVSFDSVIAPTKHLPTVTGSTLGTQPFSDAGVSPTGYLATPSVTIVDENGLTPDATPQTSNSSMTTKDGNYLEASSGTDAKNSSRAAASSKSGSWPFPFTSPPEWHSLPGTSTGPQEPDSPVSWIPSEVHTSAPLDASLAPHDTIISTTTEFPNVLTTANGTTKIDHGPITSIIVNQPSDGM
stoichiometry N (SEC-MALS): 2

B2: Mouse CD96 D1 (domain or fragment, UniProt Q3U0X8 22-134, looked up)
chain: VWEELFNVGDDVYALPGSDINLTCQTKEKNFLVQMQWSKVTDKNDMIALYHPQYGLYCGQEHACESQVAATETEKGVTNWTLYLRNISSALGGKYECIFTLYPEGIKTTVYNL
stoichiometry N (SEC-MALS): 2

B3: mCD96-A heavy-chain G56K (Fab, V domains shown)
VH: QVQLKESGPGLVQPSQTLSLTCTVSGLSLTTNSVSWIRQPPGKGLEWMGVIWSNGKTDYNSDIKSRLSISRDTSKSQVFLKMNSLQTEDTAMYFCARNFPYPGINFDWGQGVMVTVSS
VL: QAVVTQESALTTLPGGTVTLTCHSSTGAVTTSNYANWIQEKADHSFTAILGGTSNRAPGTPARFSGSLLEGKAALTITGAQVEDEATYFCSLWYSGHLIFGGGTKLTVK
binding result (Mouse CD96 D1 [1]): binds

B4: mCD96-A light-chain G50H (Fab, V domains shown)
VH: QVQLKESGPGLVQPSQTLSLTCTVSGLSLTTNSVSWIRQPPGKGLEWMGVIWSNGGTDYNSDIKSRLSISRDTSKSQVFLKMNSLQTEDTAMYFCARNFPYPGINFDWGQGVMVTVSS
VL: QAVVTQESALTTLPGGTVTLTCHSSTGAVTTSNYANWIQEKADHSFTAILGHTSNRAPGTPARFSGSLLEGKAALTITGAQVEDEATYFCSLWYSGHLIFGGGTKLTVK
binding result (Mouse CD96 D1 [1]): binds

B5: mCD96-A-7 Fab (Fab, V domains shown)
VH: QVQLKESGPGLVQPSQTLSLTCTVSGLSLTTNSVSWIRQPPGKGLEWMGVIWSNGKTDYNSDIKSRLSISRDTSKSQVFLKMNSLQTEDTAMYFCARNFPYPGINMDWGQGVMVTVSS
VL: QAVVTQESALTTLPGGTVTLTCHSSTGAVTTSNYANWIQEKADHSFTAILGHTSNRAPGTPARFSGSLLEGKAALTITGAQVEDEATYFCSLWYSGHLIFGGGTKLTVK
stoichiometry N (Mouse CD96 D1 [2]): 1

B6: mCD96-A Fab (Fab, V domains shown)
VH: QVQLKESGPGLVQPSQTLSLTCTVSGLSLTTNSVSWIRQPPGKGLEWMGVIWSNGGTDYNSDIKSRLSISRDTSKSQVFLKMNSLQTEDTAMYFCARNFPYPGINFDWGQGVMVTVSS
VL: QAVVTQESALTTLPGGTVTLTCHSSTGAVTTSNYANWIQEKADHSFTAILGGTSNRAPGTPARFSGSLLEGKAALTITGAQVEDEATYFCSLWYSGHLIFGGGTKLTVK
stoichiometry N (Mouse CD96 D1 [2]): 1

B7: mCD96-A heavy-chain F101M (Fab, V domains shown)
VH: QVQLKESGPGLVQPSQTLSLTCTVSGLSLTTNSVSWIRQPPGKGLEWMGVIWSNGGTDYNSDIKSRLSISRDTSKSQVFLKMNSLQTEDTAMYFCARNFPYPGINMDWGQGVMVTVSS
VL: QAVVTQESALTTLPGGTVTLTCHSSTGAVTTSNYANWIQEKADHSFTAILGGTSNRAPGTPARFSGSLLEGKAALTITGAQVEDEATYFCSLWYSGHLIFGGGTKLTVK
binding result (Mouse CD96 D1 [1]): binds

B8: Human CD96 D1 (domain or fragment, UniProt P40200 22-140, looked up)
chain: VWEKTVNTEENVYATLGSDVNLTCQTQTVGFFVQMQWSKVTNKIDLIAVYHPQYGFYCAYGRPCESLVTFTETPENGSKWTLHLRNMSCSVSGRYECMLVLYPEGIQTKIYNLLIQTHV
stoichiometry N (SEC-MALS): 2

B9: Human CD96 D1-D3 (domain or fragment, UniProt P40200 22-519, looked up)
chain: VWEKTVNTEENVYATLGSDVNLTCQTQTVGFFVQMQWSKVTNKIDLIAVYHPQYGFYCAYGRPCESLVTFTETPENGSKWTLHLRNMSCSVSGRYECMLVLYPEGIQTKIYNLLIQTHVTADEWNSNHTIEIEINQTLEIPCFQNSSSKISSEFTYAWSVENSSTDSWVLLSKGIKEDNGTQETLISQNHLISNSTLLKDRVKLGTDYRLHLSPVQIFDDGRKFSCHIRVGPNKILRSSTTVKVFAKPEIPVIVENNSTDVLVERRFTCLLKNVFPKANITWFIDGSFLHDEKEGIYITNEERKGKDGFLELKSVLTRVHSNKPAQSDNLTIWCMALSPVPGNKVWNISSEKITFLLGSEISSTDPPLSVTESTLDTQPSPASSVSPARYPATSSVTLVDVSALRPNTTPQPSNSSMTTRGFNYPWTSSGTDTKKSVSRIPSETYSSSPSGAGSTLHDNVFTSTARAFSEVPTTANGSTKTNHVHITGIVVNKPKDGM
stoichiometry N (SEC-MALS): 2
